Patent US20160208274

Tested on: fibrin (formed in the agarose plate from fibrinogen and thrombin)

recombinant Desmodus rotundus salivary plasminogen activator alpha2 (DSPAα2) from transgenic T1 tobacco seeds, with C-terminal 6xHis tag and KDEL
fibrin degradation: recombinant proteins t-PA, DSPAα1 and DSPAα2 produced in this manner can degrade fibrin
